This is an account of results in patent US6645738B1, “DNA molecules encoding the melanocortin 5 receptor protein from rhesus monkey” (Merck & Co., Inc., priority 1998, dated 2003).

In assay [1] the target is rhesus monkey (Macaca mulatta) melanocortin-5 receptor (rhesus monkey (Macaca mulatta)). Put plainly: cell-based or functional assay.
For assay [2], the target named is T1, human melanocortin 5 receptor (human, UniProt P33032 1-325). Put plainly: cell-based or functional assay.
Assay [3] has as its target rhesus monkey (Macaca mulatta) melanocortin-5 receptor (rhesus monkey (Macaca mulatta)). As to the kind of experiment: displacement of 0.1 nM 125I-NDP-α-MSH from CHO cells stably expressing rhMC-5R.
Assay [4] has as its system rhesus MC-5R. The assay is classed as binding, rhesus monkey (Macaca mulatta). The note with it: read-out: IC50, nM rhMC-5R. On the procedure:
(§1) The receptor plasmid was transfected into CHO dhfr- cells using lipofectamin (GIBCO). Transfected cells were selected by G418 for at least 2-3 weeks before binding and functional assays were performed. […] After incubation at room temperature for 3 hours, wells were washed 3 times by PBS, lysed in 0.5 ml of 0.05% SDS and counted by a gamma counter.
(§2) A cDNA encoding human MC-5R subcloned into the pIRES1neo expression vector (Clontech) and stably transfected into CHO cells was used as a reference for the pharmacological properties of the rhesus MC-5R. Single clones were used in all pharmacological studies as described above. The functional properties of rhMC-5R were determined by heterologous expression in CHO cells.

In assay [5] the test system is rhesus MC-5R. The assay is classed as cell-based, rhesus monkey (Macaca mulatta). Conditions: for EC50: read-out: EC50, nM rhMC-5R. On the procedure:
(§3) To determine the functional activation of receptors, stably transfected CHO cells were washed once with PBS without Ca^++/Mg^++, dissociated by non-enzymatic dissociation medium (Specialty Media, Inc.) at 37° C. for 10 min. Dissociated cells were resuspended in EBSS buffer containing 25 mM Hepes, 5 mM MgCl2, 0.1% BSA and 50 mM IBMX and incubated with agonist at room temperature for 45 min. The agonist activation was terminated by boiling for 4 min.
as §2

Assay [6] has as its target T2, human MC-5R (Homo sapiens, UniProt P33032).
T2 construct: expressed in transfected cells
The assay is classed as cell-based. On the procedure: as §3
(§4) Single clones were used in all pharmacological studies as described above.
as §2

The target in assay [7] is T1, human melanocortin 5 receptor. Put plainly: displacement of 0.1 nM 125I-NDP-α-MSH from CHO cells stably expressing hMC-5R.
The target of assay [8] is T2, human MC-5R. The assay is classed as binding. On the procedure:
as §1, §4, §2

Assay [9] has as its target T3, rhesus monkey (Macaca mulatta) melanocortin-5 receptor (rhesus monkey (Macaca mulatta), UniProt P33032 1-325 (human entry)).
T3 chain: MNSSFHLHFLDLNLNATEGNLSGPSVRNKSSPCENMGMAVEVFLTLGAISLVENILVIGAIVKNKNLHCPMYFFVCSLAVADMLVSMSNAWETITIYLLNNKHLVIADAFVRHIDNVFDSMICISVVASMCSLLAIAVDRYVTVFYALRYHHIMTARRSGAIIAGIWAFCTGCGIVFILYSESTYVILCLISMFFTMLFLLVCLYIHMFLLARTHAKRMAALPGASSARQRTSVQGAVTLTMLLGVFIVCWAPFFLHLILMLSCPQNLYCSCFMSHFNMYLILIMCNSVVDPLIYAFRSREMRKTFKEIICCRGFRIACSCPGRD
Put plainly: cell-based or functional assay.

Assay [10] concerns the target T3, rhesus monkey (Macaca mulatta) …. As to the kind of experiment: displacement of 0.1 nM 125I-NDP-α-MSH from CHO cells stably expressing rhMC-5R. On the procedure:
The receptor plasmid was transfected into CHO dhfr-cells using lipofectamin (GIBCO). Transfected cells were selected by G418 for at least 2–3 weeks before binding and functional assays were performed. […] After incubation at room temperature for 3 hours, wells were washed 3 times by PBS, lysed in 0.5 ml of 0.05% SDS and counted by a gamma counter.

Where two headings read alike, the source gives them in different places.

T2 sequence (P33032 whole entry): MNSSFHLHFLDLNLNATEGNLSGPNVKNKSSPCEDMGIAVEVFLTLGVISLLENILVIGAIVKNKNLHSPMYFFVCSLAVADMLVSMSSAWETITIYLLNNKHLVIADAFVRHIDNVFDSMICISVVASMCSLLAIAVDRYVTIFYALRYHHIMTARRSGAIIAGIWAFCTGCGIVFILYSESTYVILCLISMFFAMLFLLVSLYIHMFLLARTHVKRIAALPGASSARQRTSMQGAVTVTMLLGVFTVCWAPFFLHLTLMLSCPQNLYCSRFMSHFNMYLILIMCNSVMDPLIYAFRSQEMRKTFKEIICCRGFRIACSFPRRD

In assay [1], MT-II (peptide) showed an EC50, nM (cAMP synthesis in CHO cells) of 0.02 nM and a Maximal response (%) of 100%. Also, in [2], the EC50, nM (cAMP synthesis in CHO cells) came to 0.8 nM and the Maximal response (%) stood at 85%. This molecule had an IC50 in assay [3] of 5 nM.

MT-II [MTII]: the IC50 with rhesus MC-5R [4] worked out at 5 ± 0.2 nM. In the assay with rhesus MC-5R [5], the “Maximal response (%) rhMC-5R” value worked out at 100% and the EC50 was found to be 0.02 ± 0.01 nM. Besides, on human MC-5R [6], the “Agonist character at human MC-5R (in words)” value is recorded as “partial agonists” and the “Maximal response (%) hMC-5R” value is on record as 85%.

Consider NDP-α-MSH, for which the concentration for half-maximal inhibition (IC50) in the assay on rhesus MC-5R [4] was found to be 0.2 ± 0.1 nM. In addition, in the assay on rhesus MC-5R [5], the “Maximal response (%) rhMC-5R” value stood at 100% and the EC50 is 0.02 ± 0.01 nM.

Take NDP-α-MSH (peptide): the EC50, nM (cAMP synthesis in CHO cells) in [1] came to 0.02 nM; in assay [2], 0.3 nM. The Maximal response (%) in assay [1] and in assay [2] was 100% in each case. For the same molecule, the IC50 in assay [7] amounted to 0.5 nM; in assay [3], 0.2 nM.

Consider Shu-9119 (peptide), for which the EC50, nM (cAMP synthesis in CHO cells) in assay [1] was 0.007 nM; in assay [2], 0.03 nM. Besides, the Maximal response (%) in assay [1] and in [2] was 100% in each case. The IC50 stood at 0.4 nM in [7] and 0.02 nM in [3].

With human ACTH(1-24) [ACTH1-24], the IC50 with rhesus MC-5R [4] was 15 ± 1 nM. Further, the “Maximal response (%) rhMC-5R” value in the assay with rhesus MC-5R [5] (cAMP response, CHO cells) worked out at 100%. The EC50 in the assay with rhesus MC-5R [5] (intracellular cAMP, CHO cells, agonist 45 min at room temperature) was found to be 0.2 ± 0.1 nM. Also, the “Maximal response (%) hMC-5R” value on human MC-5R [6] (cAMP response, CHO cells) turned out to be 100%.

For the molecule α-MSH, the “Apparent binding affinity for the human MC-5R (in words)” value at human MC-5R [8] is reported as “very low apparent binding affinity”. Also, in the assay with rhesus MC-5R [5], the “Maximal response (%) rhMC-5R” value worked out at 100% and the 50% effective concentration (EC50) was found to be 0.2 ± 0.1 nM.

Turning to γ2-MSH, the “Maximal response (%) rhMC-5R” value in the assay with rhesus MC-5R [5] was found to be 100%. Besides, on human MC-5R [6], the “Agonist character at human MC-5R (in words)” value is recorded as “partial agonists” and the “Maximal response (%) hMC-5R” value stood at 80%.

As to SYSMEHFRWGKPVGKKRRPVKVYP (peptide, UniProt P01189 138-161, looked up, range 138-161) [human ACTH(1-24)], the “EC50, nM (cAMP synthesis in CHO cells)” value in assay [9] was determined as 0.2 nM; in [2], 5 nM. Moreover, the “Maximal response (%)” value in assay [9] and in [2] was 100% each time. The molecule further returned an IC50 in assay [10] of 15 nM.

Broadly, the IC50 is the concentration that inhibits the measured activity by half. Broadly, the EC50 is the concentration giving half of the maximal effect.
